Measured values as given in patent US20110256180A1 (CHILDREN S HOSPITAL AND RESEARCH CENTER AT OAKLAND, published 2011).
Positions count from the first letter of the chain named. Names may count otherwise. Where two headings read alike, the source gives them in different places.

Assays:
[1] = target: fHbp ID 1 on live bacteria of N. meningitidis group B strain H44/76 (Neisseria meningitidis) (UniProt E6MV22); experiment: cell-based or functional assay
[2] = target: fHbp ID 22, wild-type (variant group 2, modular group III) (Neisseria meningitidis); experiment: ELISA
[3] = target: fHbp ID 77, wild-type (strain 8047, variant group 2, modular group VI) (Neisseria meningitidis); experiment: ELISA
[4] = target: T1, human complement factor H (human, UniProt P08603 19-1231); experiment: ELISA, vs respective wildtype fHbp
T1 construct: also called human fH; fH
T1 sequence (P08603 19-1231 limits assumed): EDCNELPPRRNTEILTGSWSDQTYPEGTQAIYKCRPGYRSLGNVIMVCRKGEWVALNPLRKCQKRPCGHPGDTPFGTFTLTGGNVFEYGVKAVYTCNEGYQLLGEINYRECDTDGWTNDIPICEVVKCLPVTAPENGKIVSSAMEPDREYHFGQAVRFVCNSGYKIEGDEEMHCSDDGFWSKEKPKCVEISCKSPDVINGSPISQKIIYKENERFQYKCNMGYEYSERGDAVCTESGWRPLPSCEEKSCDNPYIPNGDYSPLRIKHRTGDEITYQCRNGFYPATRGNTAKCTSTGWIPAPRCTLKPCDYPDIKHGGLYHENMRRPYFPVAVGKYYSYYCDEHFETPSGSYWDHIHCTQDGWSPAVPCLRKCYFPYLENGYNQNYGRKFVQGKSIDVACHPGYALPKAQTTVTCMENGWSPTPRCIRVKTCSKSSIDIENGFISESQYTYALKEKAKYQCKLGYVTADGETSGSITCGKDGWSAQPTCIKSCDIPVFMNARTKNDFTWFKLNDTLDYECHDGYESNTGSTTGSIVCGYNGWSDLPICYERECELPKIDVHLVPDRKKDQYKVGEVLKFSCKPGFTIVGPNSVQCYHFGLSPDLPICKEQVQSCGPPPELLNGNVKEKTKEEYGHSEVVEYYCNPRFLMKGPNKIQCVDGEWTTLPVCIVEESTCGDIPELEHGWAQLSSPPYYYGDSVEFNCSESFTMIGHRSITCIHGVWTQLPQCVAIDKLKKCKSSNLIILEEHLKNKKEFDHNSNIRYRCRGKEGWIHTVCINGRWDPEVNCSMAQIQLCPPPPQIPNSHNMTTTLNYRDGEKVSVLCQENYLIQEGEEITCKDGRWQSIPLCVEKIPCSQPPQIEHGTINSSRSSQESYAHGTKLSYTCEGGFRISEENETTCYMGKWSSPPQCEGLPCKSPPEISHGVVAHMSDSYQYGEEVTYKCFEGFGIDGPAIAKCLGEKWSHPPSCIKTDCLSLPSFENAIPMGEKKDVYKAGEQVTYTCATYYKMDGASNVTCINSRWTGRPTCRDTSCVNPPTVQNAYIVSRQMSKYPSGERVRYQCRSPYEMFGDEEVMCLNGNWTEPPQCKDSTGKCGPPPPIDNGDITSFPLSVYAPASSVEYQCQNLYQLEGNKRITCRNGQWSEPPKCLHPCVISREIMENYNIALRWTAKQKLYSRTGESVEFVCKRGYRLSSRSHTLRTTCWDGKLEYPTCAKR

[5] = target: T1, human complement factor H; experiment: ELISA, vs respective wildtype fHbp; remark: listed apart in the source
[6] = target: T2, mouse factor H (native fH of wild-type mice) (mouse, UniProt P06909 19-1234); experiment: ELISA, fHbp on plate, mouse serum
T2 construct: also called mouse fH
T2 sequence (P06909 19-1234): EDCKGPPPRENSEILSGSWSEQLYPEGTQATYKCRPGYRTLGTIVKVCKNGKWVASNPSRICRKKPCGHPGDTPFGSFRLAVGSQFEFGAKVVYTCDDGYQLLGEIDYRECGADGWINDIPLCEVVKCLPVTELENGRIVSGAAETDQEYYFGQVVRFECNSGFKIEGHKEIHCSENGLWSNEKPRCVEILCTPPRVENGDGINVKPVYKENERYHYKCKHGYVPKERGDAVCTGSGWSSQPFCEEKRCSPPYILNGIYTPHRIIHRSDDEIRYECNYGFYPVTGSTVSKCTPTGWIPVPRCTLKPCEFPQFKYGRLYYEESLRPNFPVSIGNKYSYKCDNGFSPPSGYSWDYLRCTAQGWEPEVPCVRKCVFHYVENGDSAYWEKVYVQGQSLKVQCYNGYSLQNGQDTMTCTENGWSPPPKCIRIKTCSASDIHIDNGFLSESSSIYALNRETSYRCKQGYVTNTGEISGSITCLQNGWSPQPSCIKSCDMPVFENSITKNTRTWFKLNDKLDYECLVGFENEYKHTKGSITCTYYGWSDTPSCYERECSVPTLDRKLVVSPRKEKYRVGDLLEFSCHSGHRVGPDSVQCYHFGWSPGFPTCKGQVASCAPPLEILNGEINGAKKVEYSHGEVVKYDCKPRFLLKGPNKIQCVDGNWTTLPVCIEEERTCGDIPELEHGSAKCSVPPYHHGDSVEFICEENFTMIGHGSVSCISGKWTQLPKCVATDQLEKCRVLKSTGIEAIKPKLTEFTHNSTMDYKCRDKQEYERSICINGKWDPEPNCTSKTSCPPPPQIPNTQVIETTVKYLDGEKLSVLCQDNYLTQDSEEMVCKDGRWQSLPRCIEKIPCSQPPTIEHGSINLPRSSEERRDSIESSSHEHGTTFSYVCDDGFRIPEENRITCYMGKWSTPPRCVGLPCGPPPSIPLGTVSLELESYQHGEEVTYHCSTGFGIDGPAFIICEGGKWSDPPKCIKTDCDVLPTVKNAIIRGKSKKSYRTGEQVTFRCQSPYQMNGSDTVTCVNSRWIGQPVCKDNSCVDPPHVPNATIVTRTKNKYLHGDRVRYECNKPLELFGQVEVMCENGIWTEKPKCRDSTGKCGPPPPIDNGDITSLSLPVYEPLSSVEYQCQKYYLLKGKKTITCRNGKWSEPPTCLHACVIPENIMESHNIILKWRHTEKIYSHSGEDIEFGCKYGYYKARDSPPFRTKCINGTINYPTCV

[7] = target: T1, human complement factor H; experiment: ELISA
[8] = target: T1, human complement factor H; experiment: ELISA, fHbp on plate

Work on “human IgG1 mouse chimeric anti-fHbp mAb502 (from UniProt P01857 1-330; P01834 1-107) (antibody)” yielded a Bactericidal Activity (BC50%), fH-depleted complement, mean [1] of 1.25 µg/mL and a Bactericidal Activity (BC50%), fH-repleted complement, mean [1] of over 100 µg/mL.

“human IgG1 mouse chimeric anti-fHbp mAb JAR 5 (from UniProt P01857 1-330; P01834 1-107) (antibody)” gave a Bactericidal Activity (BC50%), fH-depleted complement, mean [1] of 1.25 µg/mL and a Bactericidal Activity (BC50%), fH-repleted complement, mean [1] of 23.5 µg/mL.

In the case of “human IgG1 mouse chimeric anti-fHbp mAb JAR 3 (from UniProt P01857 1-330; P01834 1-107) (antibody)”, the Bactericidal Activity (BC50%), fH-repleted complement, mean [1] is reported as 15.2 µg/mL.

“anti-fHbp monoclonal antibody JAR 4 (murine)” gave a percent less binding than to variant 1 fHbp (ID 1) [2] of 30% and a percent less binding than to variant 1 fHbp (ID 1) [3] of 30%.

B1: fHbp ID 15, wild-type (natural chimera, modular group IV) (other)
chain: CSSGGGGSGGGGVAADIGAGLADALTAPLDHKDKGLKSLTLEDSISQNGTLTLSAQGAERTFKAGDKDNSLNTGKLKNDKISRFDFIRQIEVDGQLITLESGEFQVYKQSHSALTALQTEQVQDSEHSGKMVAKRQFRIGDIVGEHTSFGKLPKDVMATYRGTAFGSDDAGGKLTYTIDFAAKQGHGKIEHLKSPELNVDLAAADIKPDEKHHAVISGSVLYNQAEKGSYSLGIFGGQAQEVAGSAEVETANGIRHIGLAAKQ
notes: Recombinant; also called Pep 15 WT; peptide 15
With B1 the “Fold-Decrease in fH binding” value [4] was 0 fold and the “Fold-Decrease in fH binding” value [5] was 0 fold.

B2: fHbp ID 1, wild-type recombinant factor H binding protein (strain MC58, variant 1, modular group I) (other)
chain: CSSGGGGVAADIGAGLADALTAPLDHKDKGLQSLTLDQSVRKNEKLKLAAQGAEKTYGNGDSLNTGKLKNDKVSRFDFIRQIEVDGQLITLESGEFQVYKQSHSALTAFQTEQIQDSEHSGKMVAKRQFRIGDIAGEHTSFDKLPEGGRATYRGTAFGSDDAGGKLTYTIDFAAKQGNGKIEHLKSPELNVDLAAADIKPDGKRHAVISGSVLYNQAEKGSYSLGIFGGKAQEVAGSAEVKTVNGIRHIGLAAKQ
notes: also called WT fHbp ID 1; Pep1
B2: no binding (tested: 1:100 dilution of serum) [6].

B3: fHbp ID 28 K199A mutant (other)
chain: CSSGGGGSGGGGVAADIGTGLADALTAPLDHKDKGLKSLTLEDSIPQNGTLTLSAQGAEKTFKAGDKDNSLNTGKLKNDKISRFDFVQKIEVDGQTITLASGEFQIYKQNHSAVVALQIEKINNPDKTDSLINQRSFLVSGLGGEHTAFNQLPGGKAEYHGKAFSSDDPNGRLHYSIDFTKKQGYGRIEHLKTLEQNVELAAAELAADEKSHAVILGDTRYGSEEKGTYHLALFGDRAQEIAGSATVKIGEKVHEIGIAGKQ
B3: binds [7].

B4: fHbp ID 77 R41S/K113A double mutant (other)
chain: CSSGGGGVAADIGARLADALTAPLDHKDKSLQSLTLDQSVSKNEKLKLAAQGAEKTYGNGDSLNTGKLKNDKVSRFDFIRQIEVDGQLITLESGEFQIYKQDHSAVVALQIEAINNPDKIDSLINQRSFLVSGLGGEHTAFNQLPDGKAEYHGKAFSSDDAGGKLTYTIDFAAKQGHGKIEHLKTPEQNVELAAAELKADEKSHAVILGDTRYGSEEKGTYHLALFGDRAQEIAGSATVKIGEKVHEIGIAGKQ
In the case of B4, the “fold less binding to fH than wildtype fHbp ID 77” value [8] is reported as about 10 fold and the “Fold-Decrease in fH binding” value [4] is reported as over 10 fold.

B5: fHbp ID 77 R41S/K113A/D121A triple mutant (other)
chain: B4 chain with D121A
B5 was tested, and the binding result [8] was “no binding” and the “Fold-Decrease in fH binding” value [4] was over 50 fold.

B6: fHbp ID 77 R41S/K119A double mutant (other)
chain: B4 chain with A113K, K119A
For B6, the “fold decrease in fH binding” value [8] was about 5 fold and the “Fold-Decrease in fH binding” value [4] was over 5 fold.
